The text below walks through data of patent US20240417469A1 (CONCEPT TO MEDICINE BIOTECH, published 2024).

Assay [1] concerns the target T1, human CD3 on cells (human PBMC; Jurkat TCR/CD3 NFAT reporter cells) (human, UniProt P07766 23-207; P04234 22-171; P09693 23-182). The assay is described as follows: cell-based or functional assay.
The target of assay [2] is T1, human CD3 on cells (human PBMC; Jurkat …). The assay is described as follows: cell-based or functional assay. This is another data set of the same source.
The target in assay [3] is T2, human CD3 protein (human, UniProt P07766 23-126; P04234 22-105).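 Further: binding to plate-immobilized human CD3 protein, bound antibody detected with peroxidase-labelled anti-human IgG and TMB, read as absorbance at 450 nm.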
T2 construct: ELISA coating protein; also called Human CD3D & CD3E Heterodimer Protein
T2 sequence (P07766 23-126 limits assumed, chain 1 of 2): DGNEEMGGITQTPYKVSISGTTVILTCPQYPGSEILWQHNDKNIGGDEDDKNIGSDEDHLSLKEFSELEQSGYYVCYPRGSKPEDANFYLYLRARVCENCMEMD
T2 sequence (P04234 22-105 limits assumed, chain 2 of 2): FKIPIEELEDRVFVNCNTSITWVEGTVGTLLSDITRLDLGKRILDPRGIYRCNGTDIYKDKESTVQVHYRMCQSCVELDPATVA
The assay is described as follows: ELISA, plate-coated CD3. (In general: In an ELISA, binding on a coated surface is turned into a signal by an enzyme label.)

For assay [4], the target named is T3, recombinant CD3D&E protein (human CD3-his tag) (human, UniProt P04234 22-105; P07766 23-126, limits assumed).
T3 construct: Analyte in Biacore; also called CD3D&E-His; CD3d&ε-His
T3 sequence (P04234 22-105 limits assumed, chain 1 of 2): as the sequence (P04234 22-105 limits assumed, chain 2 of 2) above
T3 sequence (P07766 23-126 limits assumed, chain 2 of 2): as the sequence (P07766 23-126 limits assumed, chain 1 of 2) above
Description: SPR Biacore, Ab captured on Protein A.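 Further: humanized antibodies on a Protein A chip, human CD3-his analyte flowed over in serial dilutions for 3 min, dissociation tracked 120–360 s on a Biacore T200.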 On the technique in general: Surface plasmon resonance follows binding to a sensor surface in real time, without labels.

T1 sequence (P07766 23-207, chain 1 of 3): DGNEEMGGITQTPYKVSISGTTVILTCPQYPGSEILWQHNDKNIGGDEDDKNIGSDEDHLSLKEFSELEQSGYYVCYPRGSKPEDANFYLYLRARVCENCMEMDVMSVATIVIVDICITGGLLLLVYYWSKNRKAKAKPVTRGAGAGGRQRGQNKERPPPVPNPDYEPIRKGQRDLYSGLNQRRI
T1 sequence (P04234 22-171, chain 2 of 3): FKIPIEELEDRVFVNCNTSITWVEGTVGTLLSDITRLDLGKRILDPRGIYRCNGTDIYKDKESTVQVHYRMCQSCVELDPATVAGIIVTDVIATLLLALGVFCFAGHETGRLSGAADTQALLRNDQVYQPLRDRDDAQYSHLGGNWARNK
T1 sequence (P09693 23-182, chain 3 of 3): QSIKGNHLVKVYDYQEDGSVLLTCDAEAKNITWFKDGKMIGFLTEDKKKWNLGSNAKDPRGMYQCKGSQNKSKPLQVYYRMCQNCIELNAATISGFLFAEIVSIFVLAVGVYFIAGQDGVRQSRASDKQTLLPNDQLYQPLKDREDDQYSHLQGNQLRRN

B1: Hu153A6B1-1 (antibody, V domains shown)
VH: EVQLQESGPGLVKPSETLSLTCTVSGGSISSYNIHWIRQPPGKGLEWIGRIRYNGDTSYNSALKSRVTISVDTSKNQFSLKLSSVTAADTAVYYCARGPYGGSREPLFDYWGQGTMVTVSS
VL: DIQMTQSPSSLSASVGDRVTITCKTSQNINKYLNWYQQKPGKAPKLLIYTTNNLQTGVPSRFSGSGSGTDFTLTISSLQPEDFATYYCLQHGSGYTFGQGTKLEIK
notes: humanized mAb
For the molecule B1, in assay [1], the “% of SP34” value was determined as 19.8% and the Emax came to 1160. In addition, the “CD3-NFAT Activity by CD3 mAb” value in assay [2] is no more than 50 % SP34. The EC50 (in general, the midpoint of the concentration-response curve) in assay [3] came out at 16.3 ng/mL. Moreover, in assay [4], the Kd (usually the concentration at which binding is half-saturated) worked out at 8.81 nM, the koff (usually the rate constant with which the complex falls apart) was 0.00391 s⁻¹ and the kon (commonly the second-order rate constant of association) came out at 444000 M⁻¹ s⁻¹.

B2: Hu153A6B1-8 (antibody, V domains shown)
VH: EVQLQESGPGLVKPSETLSLTCTVSGGSISSYNIHWVRQPPGKGLEWIGRIRYNGDTSYNSALKSRVTISRDTSKNQFSLKLSSVTAADTAVYYCARGPYGGSREPLFDYWGQGTMVTVSS
VL: DIQMTQSPSSLSASVGDRVTITCKTSQNINKYLNWFQQKPGKAPKLLIYTTNNLQTGIPSRFSGSGSGTDFTLTISSLQPEDFATYYCLQHGSGYTFGQGTKLEIK
notes: humanized mAb
In the case of B2, in assay [1], the “% of SP34” value stood at 70.5% and the Emax came out at 4130. Further, the “CD3-NFAT Activity by CD3 mAb” value in assay [2] was greater than 50 % SP34. For the same molecule, in assay [3], the EC50 was 2.95 ng/mL. Moreover, in assay [4], the Kd stood at 49 nM, the koff came out at 0.0396 s⁻¹ and the kon was determined as 808000 M⁻¹ s⁻¹.

B3: Hu153A6B1-14 (antibody, V domains shown)
VH: EVQLQESGPGLVKPSETLSLTCTVSGGSISSYNIHWVRQPPGKGLEWIGRIRYNGDTSYNSALKSRVTISRDTSKNQFSLKLSSVTAADTAVYYCARGPYGGSREPLFDYWGQGTMVTVSS
VL: DIQMTQSPSSLSASVGDRVTITCKTSQNINKYLNWFQQKPGKAPKLLIYTTNNLQTGIPSRFSGSGSGTDFTLTISSLQPEDFATYFCLQHGSGYTFGQGTKLEIK
notes: humanized mAb
In the case of B3, in assay [1], the “% of SP34” value is 74.9% and the Emax was determined as 4140. Moreover, the “CD3-NFAT Activity by CD3 mAb” value in assay [2] was greater than 50 % SP34. A half-maximal effect in assay [3] (EC50) was put at 3.06 ng/mL. Also, in assay [4], the Kd amounted to 51.7 nM, the koff stood at 0.053 s⁻¹ and the kon came to 1.02e+06 M⁻¹ s⁻¹.

B4: Hu153A6B1-7 (antibody, V domains shown)
VH: EVQLQESGPGLVKPSETLSLTCTVSGGSISSYNIHWIRQPPGKGLEWIGRIRYNGDTSYNSALKSRVTISVDTSKNQFSLKLSSVTAADTAVYYCARGPYGGSREPLFDYWGQGTMVTVSS
VL: DIQMTQSPSSLSASVGDRVTITCKTSQNINKYLNWFQQKPGKAPKLLIYTTNNLQTGIPSRFSGSGSGTDFTLTISSLQPEDFATYYCLQHGSGYTFGQGTKLEIK
notes: humanized mAb
For B4, in assay [1], the “% of SP34” value was 26.9% and the Emax amounted to 1580. Further, the “CD3-NFAT Activity by CD3 mAb” value in assay [2] was no more than 50 % SP34. The molecule further gave an EC50 in assay [3] of 6.78 ng/mL. Besides, in assay [4], the Kd worked out at 45.2 nM, the koff was determined as 0.0142 s⁻¹ and the on-rate (kon) worked out at 314000 M⁻¹ s⁻¹.

B5: Hu153A6B1-10 (antibody, V domains shown)
VH: EVQLQESGPGLVKPSETLSLTCTVSGGSISSYNIHWVRQPPGKGLEWMGRIRYNGDTSYNSALKSRLTISRDTSKNQFSLKLSSVTAADTAVYYCTRGPYGGSREPLFDYWGQGTMVTVSS
VL: DIQMTQSPSSLSASVGDRVTITCKTSQNINKYLNWFQQKPGKAPKLLIYTTNNLQTGIPSRFSGSGSGTDFTLTISSLQPEDFATYYCLQHGSGYTFGQGTKLEIK
notes: humanized mAb
In the case of B5, in assay [1], the “% of SP34” value was found to be 73.9% and the Emax stood at 4080. Also, the “CD3-NFAT Activity by CD3 mAb” value in assay [2] is greater than 50 % SP34. In assay [3], the EC50 turned out to be 3.44 ng/mL. Also, in assay [4], the Kd stood at 70.5 nM, the koff was determined as 0.0568 s⁻¹ and the kon is 806000 M⁻¹ s⁻¹.

B6: Hu153A6B1-13 (antibody, V domains shown)
VH: EVQLQESGPGLVKPSETLSLTCTVSGGSISSYNIHWIRQPPGKGLEWIGRIRYNGDTSYNSALKSRVTISVDTSKNQFSLKLSSVTAADTAVYYCARGPYGGSREPLFDYWGQGTMVTVSS
VL: DIQMTQSPSSLSASVGDRVTITCKTSQNINKYLNWFQQKPGKAPKLLIYTTNNLQTGIPSRFSGSGSGTDFTLTISSLQPEDFATYFCLQHGSGYTFGQGTKLEIK
notes: humanized mAb
On to B6, for which, in assay [1], the “% of SP34” value turned out to be 23.2% and the Emax is 1280. Further, in assay [2], the “CD3-NFAT Activity by CD3 mAb” value is no more than 50 % SP34. In addition, in assay [3], the EC50 worked out at 6.38 ng/mL. Further, in assay [4], the dissociation constant (Kd) was 29.6 nM, the off-rate (koff) came to 0.0103 s⁻¹ and the kon turned out to be 349000 M⁻¹ s⁻¹.

B7: Hu153A6B1-11 (antibody, V domains shown)
VH: EVQLQESGPGLVKPSETLSLTCTVSGFSISSYNIHWVRQPPGKGLEWMGRIRYNGDTSYNSALKSRLTISRDTSKNQVSLKLSSVTAADTAVYYCTRGPYGGSREPLFDYWGQGTMVTVSS
VL: DIQMTQSPSSLSASVGDRVTITCKTSQNINKYLNWFQQKPGKAPKLLIYTTNNLQTGIPSRFSGSGSGTDFTLTISSLQPEDFATYYCLQHGSGYTFGQGTKLEIK
notes: humanized mAb
For the molecule B7, in assay [1], the “% of SP34” value turned out to be 81% and the Emax was found to be 4470. In addition, in assay [2], the “CD3-NFAT Activity by CD3 mAb” value was greater than 50 % SP34. This molecule came in with an EC50 in assay [3] of 3.05 ng/mL. For the same molecule, in assay [4], the Kd came to 11.4 nM, the koff was 0.00106 s⁻¹ and the kon stood at 93000 M⁻¹ s⁻¹.

B8: Hu153A6B1-2 (antibody, V domains shown)
VH: EVQLQESGPGLVKPSETLSLTCTVSGGSISSYNIHWVRQPPGKGLEWIGRIRYNGDTSYNSALKSRVTISRDTSKNQFSLKLSSVTAADTAVYYCARGPYGGSREPLFDYWGQGTMVTVSS
VL: DIQMTQSPSSLSASVGDRVTITCKTSQNINKYLNWYQQKPGKAPKLLIYTTNNLQTGVPSRFSGSGSGTDFTLTISSLQPEDFATYYCLQHGSGYTFGQGTKLEIK
notes: humanized mAb
As to B8, in assay [1], the “% of SP34” value came out at 42.6% and the Emax was 2500. Also, in assay [2], the “CD3-NFAT Activity by CD3 mAb” value was no more than 50 % SP34. This molecule also yielded an EC50 in assay [3] of 3.39 ng/mL. Also, in assay [4], the Kd worked out at 50 nM, the koff was determined as 0.0201 s⁻¹ and the kon was 402000 M⁻¹ s⁻¹.

B9: Hu153A6B1-12 (antibody, V domains shown)
VH: EVQLQESGPGLVKPSETLSLTCTVSGFSLTSYNIHWVRQPPGKGLEWMGRIRYNGDTSYNSALKSRLTISRDTSKNQVSLKLSSVTAADTAVYYCTRGPYGGSREPLFDYWGQGTMVTVSS
VL: DIQMTQSPSSLSASVGDRVTITCKTSQNINKYLNWFQQKPGKAPKLLIYTTNNLQTGIPSRFSGSGSGTDFTLTISSLQPEDFATYYCLQHGSGYTFGQGTKLEIK
notes: humanized mAb
As for B9, in assay [1], the “% of SP34” value came out at 87.5% and the Emax came to 4830. Besides, the “CD3-NFAT Activity by CD3 mAb” value in assay [2] was greater than 50 % SP34. Moreover, the EC50 in assay [3] stood at 2.69 ng/mL. In addition, in assay [4], the Kd stood at 13.5 nM, the koff came out at 0.00107 s⁻¹ and the kon amounted to 79400 M⁻¹ s⁻¹.

B10: Hu153A6B1-6 (antibody, V domains shown)
VH: EVQLQESGPGLVKPSETLSLTCTVSGFSLTSYNIHWVRQPPGKGLEWMGRIRYNGDTSYNSALKSRLTISRDTSKNQVSLKLSSVTAADTAVYYCTRGPYGGSREPLFDYWGQGTMVTVSS
VL: DIQMTQSPSSLSASVGDRVTITCKTSQNINKYLNWYQQKPGKAPKLLIYTTNNLQTGVPSRFSGSGSGTDFTLTISSLQPEDFATYYCLQHGSGYTFGQGTKLEIK
notes: humanized mAb
As to B10, in assay [1], the “% of SP34” value was 71.9% and the Emax turned out to be 4210. Also, the “CD3-NFAT Activity by CD3 mAb” value in assay [2] was greater than 50 % SP34. Moreover, the midpoint of the response in assay [3], the EC50, lay at 2.99 ng/mL. For the same molecule, in assay [4], the Kd amounted to 21.1 nM, the koff was found to be 0.00181 s⁻¹ and the kon turned out to be 85800 M⁻¹ s⁻¹.

B11: Hu153A6B1-3 (antibody, V domains shown)
VH: EVQLQESGPGLVKPSETLSLTCTVSGGSISSYNIHWVRQPPGKGLEWMGRIRYNGDTSYNSALKSRLTISRDTSKNQFSLKLSSVTAADTAVYYCARGPYGGSREPLFDYWGQGTMVTVSS
VL: DIQMTQSPSSLSASVGDRVTITCKTSQNINKYLNWYQQKPGKAPKLLIYTTNNLQTGVPSRFSGSGSGTDFTLTISSLQPEDFATYYCLQHGSGYTFGQGTKLEIK
notes: humanized mAb
As to B11, in assay [1], the “% of SP34” value came out at 45.5% and the Emax is 2660. For the same molecule, the “CD3-NFAT Activity by CD3 mAb” value in assay [2] was no more than 50 % SP34. In assay [3], this molecule showed a half-maximal effective concentration (EC50) of 3.87 ng/mL. In assay [4], the Kd was found to be 59.5 nM, the off-rate constant (koff) was determined as 0.0241 s⁻¹ and the kon was found to be 406000 M⁻¹ s⁻¹.

B12: Hu153A6B1-5 (antibody, V domains shown)
VH: EVQLQESGPGLVKPSETLSLTCTVSGFSISSYNIHWVRQPPGKGLEWMGRIRYNGDTSYNSALKSRLTISRDTSKNQVSLKLSSVTAADTAVYYCTRGPYGGSREPLFDYWGQGTMVTVSS
VL: DIQMTQSPSSLSASVGDRVTITCKTSQNINKYLNWYQQKPGKAPKLLIYTTNNLQTGVPSRFSGSGSGTDFTLTISSLQPEDFATYYCLQHGSGYTFGQGTKLEIK
notes: humanized mAb
With B12, in assay [1], the “% of SP34” value was determined as 78.5% and the Emax worked out at 4600. In assay [2], the “CD3-NFAT Activity by CD3 mAb” value was greater than 50 % SP34. In assay [3], a half-maximal response (EC50) required 3.23 ng/mL. In assay [4], the Kd was determined as 19.4 nM, the koff came to 0.00177 s⁻¹ and the kon amounted to 91300 M⁻¹ s⁻¹.

B13: Hu153A6B1-4 (antibody, V domains shown)
VH: EVQLQESGPGLVKPSETLSLTCTVSGGSISSYNIHWVRQPPGKGLEWMGRIRYNGDTSYNSALKSRLTISRDTSKNQFSLKLSSVTAADTAVYYCTRGPYGGSREPLFDYWGQGTMVTVSS
VL: DIQMTQSPSSLSASVGDRVTITCKTSQNINKYLNWYQQKPGKAPKLLIYTTNNLQTGVPSRFSGSGSGTDFTLTISSLQPEDFATYYCLQHGSGYTFGQGTKLEIK
notes: humanized mAb
For the molecule B13, in assay [1], the “% of SP34” value turned out to be 44.1% and the Emax was found to be 2580. Further, in assay [2], the “CD3-NFAT Activity by CD3 mAb” value was no more than 50 % SP34. In addition, a half-maximal effect in assay [3] (EC50) was put at 3.72 ng/mL. In assay [4], the Kd is 58.5 nM, the koff amounted to 0.0195 s⁻¹ and the kon was determined as 334000 M⁻¹ s⁻¹.
